# B1: human MMP-12 catalytic domain (protein)
# chain: GPVWRKHYITYRINNYTPDMNREDVDYAIRKAFQVWSNVTPLKFSKINTGMADILVVFARGAHGDFHAFDGKGGILAHAFGPGSGIGGDAHFDEDEFWTTHSGGTNLFLTAVHEIGHSLGLGHSSDPKAVMFPTYKYVDINTFRLSADDIRGIQSLYG
# Target: All other MMP-12 binders
protein,measurement,value
B1,"MMP-12 proteolytic activity, colorimetric assay (BIOMOL AK-402), VHH at 7 µM",did not inhibit MMP-12
